Results as given in IntAct's records for PubMed 31515488.

B1: Protein BEX5 (Homo sapiens), Q5H9J7 (parent)
chain: MENVPKENKVVEKAPVQNEAPALGGGEYQEPGGNVKGVWAPPAPGFGEDVPNRLVDNIDMIDGDGDDMERFMEEMRELRRKIRELQLRYSLRILIGDPPHHDHHDEFCLMP
partner: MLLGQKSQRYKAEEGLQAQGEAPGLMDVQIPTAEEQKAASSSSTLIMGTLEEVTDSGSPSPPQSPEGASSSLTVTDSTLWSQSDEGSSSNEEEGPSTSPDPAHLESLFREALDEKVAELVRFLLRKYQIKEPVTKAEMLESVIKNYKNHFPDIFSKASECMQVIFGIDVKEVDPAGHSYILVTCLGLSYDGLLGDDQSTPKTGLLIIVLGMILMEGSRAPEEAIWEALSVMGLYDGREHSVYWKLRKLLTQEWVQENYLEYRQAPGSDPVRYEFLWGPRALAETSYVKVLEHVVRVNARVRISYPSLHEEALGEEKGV
B2: Beta-taxilin (Homo sapiens), Q8N3L3 (parent)
chain: MEANHSEQLSAERQSTPPGDSSSLPSHNGLEKEDGQDSPTPVQPPEKEASVHPDISEELNRQLEDIINTYGSAASTAGKEGSARASEQPENAESPDNEDGDCEETTEEAGREPVASGEPPTVKEPVSNKEQKLEKKILKGLGKEANLLMQNLNKLQTPEEKFDFLFKKYAELLDEHRTEQKKLKLLQKKQVQIQKEKDQLQGEHSRAILARSKLESLCRELQRHNKTLKEEALQRAREEEEKRKEITSHFQSTLTDIQGQIEQQSERNMKLCQENTELAEKLKSIIDQYELREEHLDKIFKHRELQQKLVDAKLEQAQEMMKEAEERHKREKEYLLNQAAEWKLQAKVLKEQETVLQAQLTLYSGRFEEFQSTLTKSNEVFATFKQEMDKTTKKMKKLEKDTATWKARFENCNKALLDMIEEKALRAKEYECFVMKIGRLENLCRALQEERNELHKKIRDAEISEKDDQSQHNSDEEPESNVSVDQEIDAEEVNSVQTAVKNLATAFMIIHHPESTPHQSKETQPEIGSSQESADAALKEPEQPPLIPSRDSESPLPPLTPQAEAEGGSDAEPPSKASNSPAGLGAETQCEGLPVGAQADQASWKPEAEASGQAPQAPTEASLQKMEADVPAPACAAEEHVAAMVPACEPSRQPPRAAAEELPVGASAGPQPRNVADTNLEGVD
partner: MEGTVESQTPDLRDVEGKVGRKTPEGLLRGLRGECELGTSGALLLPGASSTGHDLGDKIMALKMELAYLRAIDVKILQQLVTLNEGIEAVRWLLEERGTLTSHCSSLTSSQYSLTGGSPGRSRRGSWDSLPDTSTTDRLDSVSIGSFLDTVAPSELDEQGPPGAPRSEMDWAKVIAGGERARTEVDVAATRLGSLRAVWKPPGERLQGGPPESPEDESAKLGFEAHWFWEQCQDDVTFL
B3: Spermatogenesis-associated protein 2 (Homo sapiens), Q9UM82 (parent)
chain: MGKPSSMDTKFKDDLFRKYVQFHESKVDTTTSRQRPGSDECLRVAASTLLSLHKVDPFYRFRLIQFYEVVESSLRSLSSSSLRALHGAFSMLETVGINLFLYPWKKEFRSIKTYTGPFVYYVKSTLLEEDIRAILSCMGYTPELGTAYKLRELVETLQVKMVSFELFLAKVECEQMLEIHSQVKDKGYSELDIVSERKSSAEDVRGCSDALRRRAEGREHLTASMSRVALQKSASERAAKDYYKPRVTKPSRSVDAYDSYWESRKPPLKASLSLRKEPVATDVGDDLKDEIIRPSPSLLTMASSPHGSPDVLPPASPSNGPALLRGTYFSTQDDVDLYTDSEPRATYRRQDALRPDVWLLRNDAHSLYHKRSPPAKESALSKCQSCGLSCSSSLCQRCDSLLTCPPASKPSAFPSKASTHDSLAHGASLREKYPGQTQGLDRLPHLHSKSKPSTTPTSRCGFCNRPGATNTCTQCSKVSCDACLSAYHYDPCYKKSELHKFMPNNQLNYKSTQLSHLVYR
B4: Ensconsin (Homo sapiens), Q14244 (parent)
chain: MAELGAGGDGHRGGDGAVRSETAPDSYKVQDKKNASSRPASAISGQNNNHSGNKPDPPPVLRVDDRQRLARERREEREKQLAAREIVWLEREERARQHYEKHLEERKKRLEEQRQKEERRRAAVEEKRRQRLEEDKERHEAVVRRTMERSQKPKQKHNRWSWGGSLHGSPSIHSADPDRRSVSTMNLSKYVDPVISKRLSSSSATLLNSPDRARRLQLSPWESSVVNRLLTPTHSFLARSKSTAALSGEAASCSPIIMPYKAAHSRNSMDRPKLFVTPPEGSSRRRIIHGTASYKKERERENVLFLTSGTRRAVSPSNPKARQPARSRLWLPSKSLPHLPGTPRPTSSLPPGSVKAAPAQVRPPSPGNIRPVKREVKVEPEKKDPEKEPQKVANEPSLKGRAPLVKVEEATVEERTPAEPEVGPAAPAMAPAPASAPAPASAPAPAPVPTPAMVSAPSSTVNASASVKTSAGTTDPEEATRLLAEKRRLAREQREKEERERREQEELERQKREELAQRVAEERTTRREEESRRLEAEQAREKEEQLQRQAEERALREREEAERAQRQKEEEARVREEAERVRQEREKHFQREEQERLERKKRLEEIMKRTRRTEATDKKTSDQRNGDIAKGALTGGTEVSALPCTTNAPGNGKPVGSPHVVTSHQSKVTVESTPDLEKQPNENGVSVQNENFEEIINLPIGSKPSRLDVTNSESPEIPLNPILAFDDEGTLGPLPQVDGVQTQQTAEVI
B5: Myotubularin-related protein 9 (Homo sapiens), Q96QG7 (parent)
chain: MEFAELIKTPRVDNVVLHRPFYPAVEGTLCLTGHHLILSSRQDNTEELWLLHSNIDAIDKRFVGSLGTIIIKCKDFRIIQLDIPGMEECLNIASSIEALSTLDSITLMYPFFYRPMFEVIEDGWHSFLPEQEFELYSSATSEWRLSYVNKEFAVCPSYPPIVTVPKSIDDEALRKVATFRHGGRFPVLSYYHKKNGMVIMRSGQPLTGTNGRRCKEDEKLINATLRAGKRGYIIDTRSLNVAQQTRAKGGGFEQEAHYPQWRRIHKSIERYHILQESLIKLVEACNDQTHNMDRWLSKLEASNWLTHIKEILTTACLAAQCIDREGASILIHGTEGTDSTLQVTSLAQIILEPRSRTIRGFEALIEREWLQAGHPFQQRCAQSAYCNTKQKWEAPVFLLFLDCVWQILRQFPCSFEFNENFLIMLFEHAYASQFGTFLGNNESERCKLKLQQKTMSLWSWVNQPSELSKFTNPLFEANNLVIWPSVAPQSLPLWEGIFLRWNRSSKYLDEAYEEMVNIIEYNKELQAKVNILRRQLAELETEDGMQESP
partner: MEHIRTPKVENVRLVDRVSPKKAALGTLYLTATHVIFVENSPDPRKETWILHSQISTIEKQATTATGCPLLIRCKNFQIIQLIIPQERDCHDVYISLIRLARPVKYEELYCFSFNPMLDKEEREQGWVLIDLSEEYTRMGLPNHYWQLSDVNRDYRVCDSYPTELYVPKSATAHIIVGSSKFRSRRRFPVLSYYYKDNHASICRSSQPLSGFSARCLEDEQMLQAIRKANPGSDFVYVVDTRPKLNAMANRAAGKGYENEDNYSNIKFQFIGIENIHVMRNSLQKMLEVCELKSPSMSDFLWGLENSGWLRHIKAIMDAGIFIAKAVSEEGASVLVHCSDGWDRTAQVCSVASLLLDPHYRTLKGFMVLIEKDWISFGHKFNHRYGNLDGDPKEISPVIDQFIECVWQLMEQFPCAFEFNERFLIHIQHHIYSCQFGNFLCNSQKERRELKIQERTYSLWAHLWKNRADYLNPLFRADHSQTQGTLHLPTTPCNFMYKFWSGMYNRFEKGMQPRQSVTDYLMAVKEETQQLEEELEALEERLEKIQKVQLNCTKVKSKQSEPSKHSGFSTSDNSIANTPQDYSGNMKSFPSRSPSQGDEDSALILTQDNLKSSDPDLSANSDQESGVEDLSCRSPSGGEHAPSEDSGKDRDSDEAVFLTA
B6: Nucleoside diphosphate kinase homolog 5 (Homo sapiens), P56597 (parent)
chain: MEISMPPPQIYVEKTLAIIKPDIVDKEEEIQDIILRSGFTIVQRRKLRLSPEQCSNFYVEKYGKMFFPNLTAYMSSGPLVAMILARHKAISYWLELLGPNNSLVAKETHPDSLRAIYGTDDLRNALHGSNDFAAAEREIRFMFPEVIVEPIPIGQAAKDYLNLHIMPTLLEGLTELCKQKPADPLIWLADWLLKNNPNKPKLCHHPIVEEPY

Variants of: B1
Settings: with maga8_human MAGEA8, P43361

effect of a mutation on the interaction | Variant
with no effect | E74D

Variants of: B2
Settings: with lura1_human LURAP1, Q96LR2

effect of a mutation on the interaction | Variant
with no effect | T361A
with no effect | T523I

Variants of: B3
Settings: with traf2_human TRAF2, Q12933
Chain of traf2_human TRAF2, Q12933 (Q12933 whole entry): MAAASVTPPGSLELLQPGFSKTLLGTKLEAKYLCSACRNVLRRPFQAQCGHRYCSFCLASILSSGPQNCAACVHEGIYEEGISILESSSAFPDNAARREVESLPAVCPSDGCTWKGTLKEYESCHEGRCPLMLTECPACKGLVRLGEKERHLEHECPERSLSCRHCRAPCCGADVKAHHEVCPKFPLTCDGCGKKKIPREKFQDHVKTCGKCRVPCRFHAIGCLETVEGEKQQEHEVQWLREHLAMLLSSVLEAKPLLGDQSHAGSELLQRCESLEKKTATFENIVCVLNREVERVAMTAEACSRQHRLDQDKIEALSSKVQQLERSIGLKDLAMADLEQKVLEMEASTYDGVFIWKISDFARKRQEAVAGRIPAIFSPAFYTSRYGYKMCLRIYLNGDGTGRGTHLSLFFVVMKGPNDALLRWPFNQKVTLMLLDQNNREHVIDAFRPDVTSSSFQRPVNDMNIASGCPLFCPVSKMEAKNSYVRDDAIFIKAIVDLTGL

effect of a mutation on the interaction | Variant
disrupting interaction strength | L443F

Variants of: B4
Settings: with ccdb1_human CCNDBP1, O95273
Chain of ccdb1_human CCNDBP1, O95273 (O95273 whole entry): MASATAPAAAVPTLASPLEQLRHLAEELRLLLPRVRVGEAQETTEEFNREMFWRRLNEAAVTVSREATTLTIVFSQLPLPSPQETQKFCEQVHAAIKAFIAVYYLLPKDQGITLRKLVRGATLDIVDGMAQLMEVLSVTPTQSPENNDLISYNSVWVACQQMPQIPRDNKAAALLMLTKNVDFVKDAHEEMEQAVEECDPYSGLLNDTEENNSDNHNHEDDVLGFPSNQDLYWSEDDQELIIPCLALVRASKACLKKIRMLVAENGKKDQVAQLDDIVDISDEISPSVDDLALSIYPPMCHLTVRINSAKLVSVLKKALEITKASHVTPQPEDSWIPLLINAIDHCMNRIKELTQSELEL

effect of a mutation on the interaction | Variant
with no effect | M429T
with no effect | P649L

Variants of: B5
Settings: with mtmr7_human MTMR7, Q9Y216

effect of a mutation on the interaction | Variant
with no effect | S126C

Variants of: B5
Settings: with mtmr7_human MTMR7, Q9Y216
Remark: another data set of the same source

effect of a mutation on the interaction | Variant
with no effect | F127I

Variants of: B6
Settings: with dydc1_human DYDC1, Q8WWB3
Chain of dydc1_human DYDC1, Q8WWB3 (Q8WWB3 whole entry): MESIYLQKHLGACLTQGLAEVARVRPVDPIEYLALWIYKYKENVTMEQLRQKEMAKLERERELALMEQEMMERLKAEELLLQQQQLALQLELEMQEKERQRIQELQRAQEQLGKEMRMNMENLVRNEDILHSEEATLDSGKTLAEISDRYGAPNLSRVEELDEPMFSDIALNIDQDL

Variant | effect of a mutation on the interaction
N198D | with no effect
L103F | with no effect

More lines, now with the values ahead:

effect of a mutation on the interaction | Variant
with no effect | I165M
with no effect | S50N
